Earlier results on eight substances are cited in publication PMC3966486.

For orientation: pKa means the pH at which an ionisable group is half protonated.

One data set has as its target His180 (UniProt position 208, LRRDSHKIDNY). As to conditions: unbound (free) monomer, not in the hormone-receptor complex.
Data set [1] addresses His27 (UniProt position 55, AVVLSHYIHNL). As to conditions: unbound (free) monomer, not in the hormone-receptor complex.
Data set [2] concerns the target His30 (UniProt position 58, LSHYIHNLSSE). The settings on record: unbound (free) monomer, not in the hormone-receptor complex.
The target of data set [3] is His30 (UniProt position 58, LSAYIHNLSSE). The settings on record: unbound (free) monomer, not in the hormone-receptor complex.
For data set [4], the target named is His27 (UniProt position 55, AVVLSHYIANL). The settings on record: unbound (free) monomer, not in the hormone-receptor complex.
The next data set deals with His188 (UniProt position 212, RCKPDHGYWSA). The settings on record: unbound (free) monomer, not in the hormone-receptor complex.
Data set [5] addresses human prolactin receptor extracellular domain (hPRLr-ECD), wild type (UniProt P16471). As to conditions: pH.
For data set [6] the target is unchanged. As to conditions: pH. The source holds these as a separate data set.
Data set [7] shares this target. As to conditions: pH. The source holds these as a separate data set.

Chain of human prolactin receptor extracellular domain (hPRLr-ECD), wild type (P16471 whole entry, the tested form may be a part): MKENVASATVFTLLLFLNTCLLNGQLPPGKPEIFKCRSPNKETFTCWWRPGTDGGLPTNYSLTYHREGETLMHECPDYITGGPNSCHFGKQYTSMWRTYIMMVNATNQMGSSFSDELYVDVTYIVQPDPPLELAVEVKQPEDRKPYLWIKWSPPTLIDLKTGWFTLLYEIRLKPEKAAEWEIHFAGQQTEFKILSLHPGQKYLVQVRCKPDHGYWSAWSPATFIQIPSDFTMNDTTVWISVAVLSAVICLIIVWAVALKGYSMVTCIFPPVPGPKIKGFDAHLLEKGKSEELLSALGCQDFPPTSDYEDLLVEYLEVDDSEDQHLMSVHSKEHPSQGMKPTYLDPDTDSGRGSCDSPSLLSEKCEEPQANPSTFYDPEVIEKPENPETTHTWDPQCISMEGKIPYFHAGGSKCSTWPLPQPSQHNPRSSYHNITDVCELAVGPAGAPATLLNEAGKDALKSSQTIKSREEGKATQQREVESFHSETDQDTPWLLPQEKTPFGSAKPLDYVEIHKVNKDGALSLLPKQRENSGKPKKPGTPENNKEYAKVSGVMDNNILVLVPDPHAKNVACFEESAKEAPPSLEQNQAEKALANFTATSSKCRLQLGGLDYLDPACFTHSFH

Prolactin (hPRL) (Homo sapiens): the pKa is recorded as 6.1 with His180, 6.7 in the data set with His27 [1] and 6.3 in the data set with His30 [2].

In the case of “Prolactin (hPRL) H27A (Homo sapiens; H27A)”, the pKa in the data set with His180 is listed as 6.2; with His30 [3], 6.5.

For “Prolactin (hPRL) H30A (Homo sapiens; H30A)”, the pKa with His27 [4] is 6.9; in the data set with His180, 6.3.

As to “Prolactin (hPRL) H180A (Homo sapiens; H180A)”, the results for the pKa in the data set with His27 [1] and with His30 [2] were 6.8 and 6.7, respectively.

With “Prolactin receptor extracellular domain (hPRLr-ECD) (Homo sapiens)”, in the data set with His188, the pKa is 7.7.

Turning to human prolactin H27A H27A, in data set [5], the pKa, His30 of hPRL H27A was 6.5 pH units and the pKa, His180 of hPRL H27A was 6.2 pH units.

In the case of human prolactin H30A H30A, in data set [6], the pKa, His27 of hPRL H30A is 6.9 pH units and the pKa, His180 of hPRL H30A was 6.3 pH units.

Consider human prolactin H180A H180A, for which, in data set [7], the pKa, His27 of hPRL H180A was 6.8 pH units and the pKa, His30 of hPRL H180A is 6.7 pH units.
